# Laboratory results as given in IntAct's records for PubMed 23236153.
# B1: Pre-mRNA-splicing factor CWC22 homolog (Homo sapiens), Q9HCG8 (parent)
# chain: MKSSVAQIKPSSGHDRRENLNSYQRNSSPEDRYEEQERSPRDRDYFDYSRSDYEHSRRGRSYDSSMESRNRDREKRRERERDTDRKRSRKSPSPGRRNPETSVTQSSSAQDEPATKKKKDELDPLLTRTGGAYIPPAKLRMMQEQITDKNSLAYQRMSWEALKKSINGLINKVNISNISIIIQELLQENIVRGRGLLSRSVLQAQSASPIFTHVYAALVAIINSKFPQIGELILKRLILNFRKGYRRNDKQLCLTASKFVAHLINQNVAHEVLCLEMLTLLLERPTDDSVEVAIGFLKECGLKLTQVSPRGINAIFERLRNILHESEIDKRVQYMIEVMFAVRKDGFKDHPIILEGLDLVEEDDQFTHMLPLEDDYNPEDVLNVFKMDPNFMENEEKYKAIKKEILDEGDTDSNTDQDAGSSEEDEEEEEEEGEEDEEGQKVTIHDKTEINLVSFRRTIYLAIQSSLDFEECAHKLLKMEFPESQTKELCNMILDCCAQQRTYEKFFGLLAGRFCMLKKEYMESFEGIFKEQYDTIHRLETNKLRNVAKMFAHLLYTDSLPWSVLECIKLSEETTTSSSRIFVKIFFQELCEYMGLPKLNARLKDETLQPFFEGLLPRDNPRNTRFAINFFTSIGLGGLTDELREHLKNTPKVIVAQKPDVEQNKSSPSSSSSASSSSESDSSDSDSDSSDSSSESSSEESDSSSISSHSSASANDVRKKGHGKTRSKEVDKLIRNQQTNDRKQKERRQEHGHQETRTERERRSEKHRDQNSSGSNWRDPITKYTSDKDVPSERNNYSRVANDRDQEMHIDLENKHGDPKKKRGERRNSFSENEKHTHRIKDSENFRRKDRSKSKEMNRKHSGSRSDEDRYQNGAERRWEKSSRYSEQSRESKKNQDRRREKSPAKQK
# Variants of: B1
# Conditions: with if4a3_human EIF4A3, P38919
# Chain of if4a3_human EIF4A3, P38919 (P38919 whole entry): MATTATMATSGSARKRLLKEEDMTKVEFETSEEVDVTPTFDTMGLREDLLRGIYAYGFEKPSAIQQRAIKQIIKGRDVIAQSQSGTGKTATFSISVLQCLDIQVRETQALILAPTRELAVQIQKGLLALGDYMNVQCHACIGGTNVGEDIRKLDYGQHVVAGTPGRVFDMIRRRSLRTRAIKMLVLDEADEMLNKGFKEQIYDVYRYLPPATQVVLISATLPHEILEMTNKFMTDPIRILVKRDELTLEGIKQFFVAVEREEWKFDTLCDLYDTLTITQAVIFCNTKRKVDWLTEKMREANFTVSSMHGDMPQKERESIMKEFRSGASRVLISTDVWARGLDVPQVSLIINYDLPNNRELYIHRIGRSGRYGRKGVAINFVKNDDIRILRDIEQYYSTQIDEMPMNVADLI
row,Variant,effect of a mutation on the interaction
1,N171A;K172A;N174A,disrupting interaction strength
2,R331A;Y334A,decreasing interaction strength
